One substance from paper PMC12186880 can be followed below.

The target in the assay is adenine base editing engineered ribonucleoprotein (BE-eRNP): bipartite NLS-TadA(8.20-m)-linker-nCas9(D10A, C80A)-bipartite NLS protein complexed with sgRNA (Escherichia coli | Streptococcus pyogenes). The assay is described as follows: native gel or EMSA.

Consider “adenine base editing engineered ribonucleoprotein (BE-eRNP): bipartite NLS-TadA(8.20-m)-linker-nCas9(D10A, C80A)-bipartite NLS protein complexed with sgRNA (enzyme)”, for which the stoichiometry N stood at 2.

One may read the stoichiometry N as the number of molecules, sites or subunits per partner or assembly.
